Laboratory results from patent US20240101708A1 (Genentech, published 2024).
Numbering of substitutions follows the chain as printed.

T1: recombinant human RNF43 extracellular domain (human, UniProt Q68DV7 24-197)
T1 construct: extracellular domain; also called huRNF43; human RNF43 ECD
T1 sequence (looked up): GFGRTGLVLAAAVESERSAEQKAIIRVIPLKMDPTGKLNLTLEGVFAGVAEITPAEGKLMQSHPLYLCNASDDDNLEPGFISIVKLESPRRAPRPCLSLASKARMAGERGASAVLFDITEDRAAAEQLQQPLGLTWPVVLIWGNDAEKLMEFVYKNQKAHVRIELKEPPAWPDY

B1: RNF43-33 (antibody, V domains shown)
VH: QEQLKESGPGLVQPSQTLSLTCTVSGFSLTSYNVHWVRQPPRKGLEWMGRMRYNGDTSYNSALKSRLSISRDTSKNQVFLKMNSLQTDDTGTYYCARGPLWDYWGQGVMVTVSS
VL: DVVLTQTPPTLSATIGQSVSVSCRSSQSLLHSNGNTYLNWLLQRPGQPPQLLIYLVSRLESGVPNRFSGSGSGTDFTLKISGVEAEDLGVYYCVQSTHAPYTFGAGTKLELK
notes: Rat clone; VH/VL only
B2: RNF43-35 (antibody, V domains shown)
VH: QVQLKESGPGLVQPSQTLSLTCTVSGFSLTTYSVHWVRQHSGKNLEWMGRMWTAGDTSYNSAFTSRLNIFRDTSKSQVFLKMNSLQTEDTGTYYCARSSYTSGYPFDSWGQGVMVTVSS
VL: DTVLTQSPALAVSPGERVTISCRASESVSKLMHWYQQRPGQQPQLLIYLTSHLASGVPARFSGSGSGTDFTLTIDPVEADDTATYYCQQSRNDPTFGAGTKLELK
notes: Rat clone; VH/VL only
B3: RNF43-90 (antibody, V domains shown)
VH: QVQLKESGPGLVQPSQTLSLTCTVSGFSLTSYSVHWVRQHSGNRLEWMGRMWSAGDTSFNSAFTSRLNITRDTSKSQVFLKMNSLQTEDTGTYYCVRSFYNAGYPFDYWGQGVMVTVSS
VL: B2 VL with E26D, S29I, H33N, R38K, Q42R, Q44K, T50A, A79T, A98P
notes: Rat clone; VH/VL only
B4: RNF43-69 (antibody, V domains shown)
VH: EVQLVESGGGLVQPGRSLKLSCAASGFTFSDYYMAWVRQAPKKGLEWVASITYEGSSTYYGDSVKGRFTISRDNAKSTLYLQMNSLRSEDTATFYCARHLDYGYDYAWYFDFWGPGTMVTVSS
VL: DIVLTQSPTTLSVTPGETVSLSCRTSHSIGTNLHWYQQKTNESPRLLIKYASQSISGIPSRFSASGSGTDFTLNINNVEFDDVSSYFCQQTQSWPLTFGSGTKLEIK
notes: Rat clone; VH/VL only
B5: RNF43-75 (antibody, V domains shown)
VH: B4 VH with Y32H, Y109S
VL: B4 VL with T9I, T10I, K49N, D81E, S84A, F87Y, S93R
notes: Rat clone; VH/VL only
B6: RNF43-13 (antibody, V domains shown)
VH: QSLEESGGGLVKPGGTLTLTCKASGIDFSGYYYMCWVRQAPGKGLEWIACIYTTSGSAWYASWAKGRFTISITTSLNTVTLQMTSLTATDTATYFCVRYANYGGYNYPEFGVLWGPGTLVTVSS
VL: AYDMTQTPASVEVAVGATVTIKCQASEDIYNLLAWYQQKPGQPPKLLIYRASKLASGVPSRFSGSGSGTEFTLTISSVQCDDAATYYCQQGYSISNVENPFGGGTEVVVK
notes: Rabbit clone; VH/VL only
B7: RNF43-9 (antibody, V domains shown)
VH: QSLEESGGDLVQPEGSLTLTCTASGFSFSSSCYMCWVRQAPGKGLEWIACINTGSSGSTYYASWAKGRFTISKTSSTTVTLQMTILTAADTATYFCARGYAGYTGYGQFNLWGPGTLVTVSS
VL: QIVMTQTPASVEAAVGGTVTIKCQASQSISNYLAWYQQKPGQRPKLLIYDASKLASGVPSRFKGSGSGTQFTLTISGVECADAATYYCQQGYTMNNVDNAFGGGTEVVVK
notes: Rabbit clone; VH/VL only
B8: RNF43-21 (antibody, V domains shown)
VH: QSLEESGGDLVKPGASLTLTCTASGFSFSSSYYMCWVRQAPGKGLEWIACIYAGSSGSTYYASWAKGRFTVSKTSSTTVTLQMTSLTAADTATYFCARYTYGSGSDSYFNLWGPGTLVTVSS
VL: AYDMTQTPASVEAAVGGTVTIQCQASQSIGSYLAWYQQKPGQPPKLLIYRASTLSSGVPSRFKGSGSGTQFTLTISDLECADAATYYCQQGYSITNLDNGFGGGTEVVVK
notes: Rabbit clone; VH/VL only
B9: RNF43-22 (antibody, V domains shown)
VH: QEQLEESGGDLVKPGASLTLTCTASGFSVSNSYYMCWVRQAPGKGLEWIACINTGSSGSTYYASWAKGRFTISKTSSTTVTLQMTTLTAADTATYFCARGYAGYAGYGQFNLWGPGTLVTVSS
VL: B7 VL with Q1A, I2Y, V3D, A13V, N31S, L46V, A51V, T93S, N95S, A100T
notes: Rabbit clone; VH/VL only
B10: RNF43-23 (antibody, V domains shown)
VH: QEQVVESGGGLVQPEGSLTLTCKGSGFDFSGNVLCWVRQAPGKGLEWIGCIATGIGSTAYASWAKGRFTITRGTSLNTVDLKMTSLTAADTATYFCARYVSGSEYYNFWGPGTLVTVSS
VL: AYDMTQTPASVEVAVGGTVTIKCQASQSISSFLAWYQQKPGQPPMLLIYKASTLASGVPSRFKGSGSGTQFTLTISGVECADAATYYCQQGYSWNGVDNTFGGGTEVVVK
notes: Rabbit clone; VH/VL only
B11: RNF43-6 (antibody, V domains shown)
VH: QSLEESGGRLVTPGTPLTLTCTVSGFSLSAFGMNWVRQAPGKGLEWIGYISAGGSAVYPNWAEGRFTISKASTTVTLKMTSLTTEDTATYFCVRGGYVGSTNSLWGPGTLVTVSS
VL: AAVLTQTPSPVSAAVGGTVSISCQSSKSVHNNNWLAWYQQKPGQPPKLLIYGASTLASGVPSRFKGSGSGTQFTLTISDVQCDDAATYYCSGGYSSIIDNGFGGGTDVVVE
notes: Rabbit clone; VH/VL only
B12: RNF43-14 (antibody, V domains shown)
VH: QSVEESGGRLVTPGTPLTLTCTVSGIDLSSYAMGWVRQAPGKGLEYIGFIYASGSTYYASWAKGRFTISKTSTTVDLKITSPTTEDTATYFCARDSSETINYFNIWGPGTLVTVSL
VL: NIVMTQTPSPVSGAVGGTVTIKCQASQSISNWLAWYQQKPGQPPKVLIYRASTLASGVSSRFKGSGSGTEFTLTISDLECADAATYYCQQGYYISYLDNAFGGGTEVVVK
notes: Rabbit clone; VH/VL only
B13: RNF43-17 (antibody, V domains shown)
V domain 1: QSVEESGGRLVTPGTPLTLTCTGSGFSLSNYAMGWVRQAPGKGLEYIGIIYASGSTWYASWAKGRFTISKTSTTVDLKITSPATEDTATYFCCRDATTTYDRLDLWGQGTLITVSS
V domain 2: AFELTQTPSSVEAAVGGTVTIKCQASQSISKWLAWYQQKPGQPPKLLIYRASTLPSGVPSRFKGSGSGTEFTLTISGVECADAATYYCQQGYSVTNLDEAFGGGTEVVVK
notes: Rabbit clone; VH/VL only
B14: RNF43-15 (antibody, V domains shown)
VH: QEQLEESGGDLVKPGASLTLTCTASRFSFSNDDVICWVRQAPGKGLEWIGCIATINGNTAYATWAKGRFTSSKTSSTTVTLQMTRLTAADTATYFCARWDTGSEHVTLWGPGTLVTVSS
VL: AYDMTQTPASVEVAVGGTVTIKCQASQSISSYLAWYQQKPGQPPKPLIYEASKLASGVPSRFSGSGSGTQFTLTISGVQCADAATYYCQQGASWSNVDNVFGGGTEVVVK
notes: Rabbit clone; VH/VL only
B15: RNF43-5 (antibody, V domains shown)
VH: QSVEESGGRLVTPGTPLTLTCTVSGFSLNTYAMGWVRQAPGKGLEWIGTIGSSGSTYYATWAKGRFTVSKTSTTVDLKITSPTTEDTATYFCVRGADGLNYYPIWGPGTLVTVSL
VL: AQVLTQTPSSVSAAVGGTVTINCQASQSVYNNKNLAWYQQKPGQPPKLLIYDASDLASGVSSRFKGSGSGTQFTLTISGVQCDDAATYYCQGEFNCDKGDCNAFGGGTEVVVK
notes: Rabbit clone; VH/VL only
B16: RNF43-11 (antibody, V domains shown)
VH: QEQLVESGGGLVQPEGSLTLTCKASGFDFSSNVMCWVRQAPGKGLEWIGCIYTGSSGSTYYASWAKGRFTITRSTSLNTVTLQMTSLTAADTATYFCARYVSGGEYYNLWGPGTLVTVSS
VL: ALVMTQTPASVEAAVGGTVTINCQASESISNWLAWYQQKPGQPPKLLIYKASTLASGVSSRFKGSGSGTQFTLTISDLECADAATYYCQQGSSWINIEDVFGGGTEVVVK
notes: Rabbit clone; VH/VL only
B17: RNF43-16 (antibody, V domains shown)
VH: QSVEESGGRLVTPGTPLTLTCTVSGFFLSSYYMSWVRQAPGKGLEWIGYIYAGSGSTYYASWAKGRFTISKTSTTVDLKITSPTTEDTATYFCVRDINGGDYGMDPWGPGTLVTVSS
VL: DIVMTQTPASVSAAVGGTVTIKCQASESIDSGLAWYQQKPGQRPKLLIYAASNLASGVSSRFKGSGSGTEYSLTISGVQCDDAATYYCQCTYGSVTSNTYGIAFGGGTEVVVK
notes: Rabbit clone; VH/VL only
B18: RNF43-128 (antibody, V domains shown)
VH: EVQLQESGPGLVKPSQSLSLTCSVTGFSITSHYKWNWIRKFPRNKLEWMGYIDNSGSTNYIPSLKSRISITRDTSKNQFFLQVNSVTTEDTATYYCARDCLDWGQGVMVTVSS
VL: DVVLTQTPPTLSATIGQSVSISCRSSQSLLHSNGNTYLHWLIQRPGQSPQLLIYLVSRLESGVPNRFSGSGSGTDFSVKISGVEAEDLGIYYCVQDTHTPWTFGGGTKLELK
notes: Rat clone; VH/VL only
B19: RNF43-2 (antibody, V domains shown)
VH: QSLEESGGDLVKPGASLTLTCTASGFSFSSSYYMCWVRQAPGKGLELIGCGFTGRHYTYYASWAKGRFTISKSSSTTVTLQMTSLTAADTATYFCARKSGSDYDYFDLWGPGTLVTVSS
VL: AYDMTQTPASVEAVVGGTVTIKCQASQSINSWLSWYQQKPGQRPKLLIYRASTLASGVSSRFKGSGSGTEFTLTISDLECADAATYYCQQGYVSSNINNVFGGGTEVVVK
notes: Rabbit clone; VH/VL only
B20: RNF43-20 (antibody, V domains shown)
VH: REQLVESGGGLVQPEGSLTLTCKASGFDFSSNVMCWVRQAPGKGLEWIGCIYTGSGSTAYASWAKGRFTITRSTSLNTVTLQMTSLTAADTATYFCARYVSGGEYYNLWGPGTLVTVSS
VL: B16 VL with N22K, E27Q, N31S, W32Y, A34N, I95N, N96S, D99N, V100I
notes: Rabbit clone; VH/VL only

Molecular target: T1, recombinant human RNF43 extracellular …
Experiment: SPR Biacore 8K; antibody captured on Protein A; RNF43 ECD analyte; 25 C
Description: Antibodies were screened for binding to recombinant human RNF43 and ZNRF3 ECDs using a Biacore® 8 k instrument (GE Life Sciences). Briefly, antibodies diluted to 1 μg/ml in 1×HBSP buffer (Cytiva, BR100368) were captured on a Sensor Chip Protein A (GE Life Sciences) using a flow rate of 10 μl/minute and a contact time of 60 seconds. Binding of recombinant human RNF43 and ZNRF3 extracellular domain to the captured antibodies was analyzed at 25° C. using a single cycle kinetics method with a flow rate of 30 μl/minute, a contact time of 180 seconds and a dissociation time of 600 seconds. The concentration of recombinant human RNF43 and ZNRF3 extracellular domain in the single cycle kinetics were 0, 0.8, 4, 20, and 100 nM. Between cycles, the chip was regenerated using 10 mM Glycine HCl pH 1.5 injected for 30 seconds at 30 μl/minute. Data were evaluated using Biacore 8K Evaluation software (GE Life Sciences). Kinetic constants were obtained using a 1:1 binding model with the parameter RI set to zero. Cell surface ligase antibodies with sub-nanomolar affinities may provide advantages in certain instances, for example, in the degradation efficiency which is correlated with the durability of the ternary complex as shown in FIG. 5D.

Binder	Kd [nM]	binding result
B1	63	–
B2	0.07	–
B3	0.29	–
B4	16.8	–
B5	4.65	–
B6	99.6	–
B7	1.8	–
B8	10.3	–
B9	0.5	–
B10	85	–
B11	10.3	–
B12	0.8	–
B13	6.7	–
B14	8	–
B15	1.1	–
B16	27.7	–
B17	37.8	–
B18	–	no binding
B19	–	no binding
B20	–	no binding
